The text below walks through data of article PMC517823.

pKd, pKi: −log10 of the molar value.

Chain of Ffh (from UniProt P0AGD7) (P0AGD7 whole entry): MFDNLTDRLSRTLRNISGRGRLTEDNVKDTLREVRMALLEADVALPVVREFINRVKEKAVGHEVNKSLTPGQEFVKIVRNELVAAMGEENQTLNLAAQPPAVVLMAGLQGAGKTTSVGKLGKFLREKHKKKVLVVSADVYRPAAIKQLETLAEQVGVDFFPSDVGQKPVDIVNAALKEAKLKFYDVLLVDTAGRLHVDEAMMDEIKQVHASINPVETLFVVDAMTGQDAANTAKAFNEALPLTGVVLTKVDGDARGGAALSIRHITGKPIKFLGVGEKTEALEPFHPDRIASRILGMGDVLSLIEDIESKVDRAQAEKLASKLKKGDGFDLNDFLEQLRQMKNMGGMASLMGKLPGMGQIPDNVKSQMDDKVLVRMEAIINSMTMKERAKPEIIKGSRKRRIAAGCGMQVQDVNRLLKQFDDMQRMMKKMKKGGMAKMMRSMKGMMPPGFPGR
Chain of FtsY Arg386(191) mutant (P10121 47-497, change not shown): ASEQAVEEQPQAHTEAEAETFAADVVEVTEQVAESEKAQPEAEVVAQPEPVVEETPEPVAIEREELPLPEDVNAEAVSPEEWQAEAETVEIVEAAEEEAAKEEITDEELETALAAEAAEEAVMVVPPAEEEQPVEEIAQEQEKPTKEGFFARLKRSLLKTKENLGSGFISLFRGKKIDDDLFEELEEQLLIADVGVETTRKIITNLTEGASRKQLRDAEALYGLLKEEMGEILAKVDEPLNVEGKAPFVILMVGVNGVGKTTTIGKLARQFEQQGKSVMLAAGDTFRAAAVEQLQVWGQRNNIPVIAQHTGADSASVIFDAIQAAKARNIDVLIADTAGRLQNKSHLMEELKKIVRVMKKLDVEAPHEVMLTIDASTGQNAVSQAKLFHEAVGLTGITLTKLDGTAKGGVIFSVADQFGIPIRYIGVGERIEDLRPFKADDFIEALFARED
Chain of wild-type FtsY(47-497) (from UniProt P10121) D479(278)A (P10121 47-497, change not shown): as above
Chain of wild-type FtsY(47-497) (from UniProt P10121) K453(252)E (P10121 47-497, change not shown): as above
Chain of wild-type FtsY(47-497) (from UniProt P10121) K447(246)A (P10121 47-497, change not shown): as above
Chain of wild-type FtsY(47-497) (from UniProt P10121) R386(191)A (P10121 47-497, change not shown): as above
Chain of wild-type FtsY(47-497) (from UniProt P10121) K312(117)A (P10121 47-497, change not shown): as above
Chain of wild-type FtsY(47-497) (from UniProt P10121) Q339(144)A (P10121 47-497, change not shown): as above
Chain of wild-type FtsY(47-497) (from UniProt P10121) D330(135)A (P10121 47-497, change not shown): as above
Chain of wild-type FtsY(47-497) (from UniProt P10121) G454(253)W (P10121 47-497, change not shown): as above
Chain of wild-type FtsY(47-497) (from UniProt P10121) K306(111)A (P10121 47-497, change not shown): as above
Chain of wild-type FtsY(47-497) (from UniProt P10121) D382(187)A (P10121 47-497, change not shown): as above
Chain of wild-type FtsY(47-497) (from UniProt P10121) T307(112)W (P10121 47-497, change not shown): as above

The first assay addresses Ffh (UniProt P0AGD7). The assay is described as follows: inhibition assay.
Details: not given
“wild-type FtsY(47-497) (from UniProt P10121) K447(246)A” gave a pKi of 4.96.

Regarding “wild-type FtsY(47-497) (from UniProt P10121) K453(252)E”, the pKi is 5.51. “wild-type FtsY(47-497) (from UniProt P10121) T307(112)W”: the negative logarithm of the Ki (pKi) is 5.00. Substance “wild-type FtsY(47-497) (from UniProt P10121) R386(191)A” showed a pKi of 6.92. “wild-type FtsY(47-497) (from UniProt P10121) K312(117)A” had a pKi of 5.62. Turning to “wild-type FtsY(47-497) (from UniProt P10121) D479(278)A”, the pKi was 5.55.

For the substance “wild-type FtsY(47-497) (from UniProt P10121) N302(107)A”, the pKi was 6.96. As for “wild-type FtsY(47-497) (from UniProt P10121) K306(111)A”, the pKi was 5.46. “wild-type FtsY(47-497) (from UniProt P10121) D330(135)A” had a pKi of 5.62. “wild-type FtsY(47-497) (from UniProt P10121) T307(112)A” gave a pKi of 5.15. The substance “wild-type FtsY(47-497) (from UniProt P10121) A336(141)W” had a pKi of 6.80. In turn, “wild-type FtsY(47-497) (from UniProt P10121) R333(138)A” had a pKi of 6.62. For “wild-type FtsY(47-497) (from UniProt P10121) D382(187)A”, the negative-log Ki (pKi) was 4.57. In the case of “wild-type FtsY(47-497) (from UniProt P10121) N302(107)W”, the pKi was 6.85. The same measure, in the same setting: then “wild-type FtsY(47-497) (from UniProt P10121) Q339(144)A”, with 5.41; and “wild-type FtsY(47-497) (from UniProt P10121) G454(253)W”, with 5.38.

The target in another assay is FtsY (Escherichia coli) (UniProt P10121).
Chain of FtsY (Escherichia coli) (P10121 2-497): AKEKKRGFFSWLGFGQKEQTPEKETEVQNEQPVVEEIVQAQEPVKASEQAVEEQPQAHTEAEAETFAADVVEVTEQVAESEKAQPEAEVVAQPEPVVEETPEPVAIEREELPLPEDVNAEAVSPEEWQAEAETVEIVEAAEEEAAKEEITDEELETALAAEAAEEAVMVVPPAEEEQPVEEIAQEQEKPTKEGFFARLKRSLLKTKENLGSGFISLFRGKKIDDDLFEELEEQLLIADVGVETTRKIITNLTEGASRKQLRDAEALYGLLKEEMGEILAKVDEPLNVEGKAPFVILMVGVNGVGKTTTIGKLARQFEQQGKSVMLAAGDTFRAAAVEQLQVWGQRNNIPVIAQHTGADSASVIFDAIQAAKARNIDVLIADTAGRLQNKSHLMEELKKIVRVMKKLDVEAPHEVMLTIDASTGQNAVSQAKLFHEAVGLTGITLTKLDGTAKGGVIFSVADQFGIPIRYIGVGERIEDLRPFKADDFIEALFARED
Assay: not given
Conditions: cited from earlier work.
Turning to Ffh (from UniProt P0AGD7), the negative logarithm of the Kd (pKd) was 7.80.

The target in a further assay is Ffh (UniProt P0AGD7). The assay is described as follows: other; GTP; inhibition assay. Conditions: domain or fragment.
Chain of Ffh (UniProt P0AGD7) (P0AGD7 whole entry, the tested form may be a part): as the sequence (P0AGD7 whole entry) above
The substance “FtsY Arg386(191) mutant (from UniProt P10121 47-497)” had a negative logarithm of the Ki (pKi) of 6.92.

Broadly, the pKi is the negative decadic logarithm of the Ki, by convention in mol/L. As usually defined, the pKd is the negative decadic logarithm of the Kd, by convention in mol/L.
